Consider one molecule from US20250277027A1 (POPULAS BIOPHARMACEUTICAL WUHAN, published 2025).

Test [1] addresses SCN9A-4-B2M. The test can be described thus: SPR, ligand SCN9A-4-B2M, analyte 5C12D2C8, 1:1 binding fit; analyte at 12.5 to 400 nM per paragraph 79.
Test [2] deals with T1, polypeptide C9797BL020-7.
T1 construct: also called antigen peptide
T1 peptide: CDSVNVDKQPKYEYS
The experiment in a line: affinity sorting, kinetic fit in RU, antibody as analyte solution.

Test [3] has as its target T1, polypeptide C9797BL020-7. The test can be described thus: SPR, antibody at 12.5, 25, 50, 100, 200 and 400 nM.

B1: monoclonal antibody 5C12D2C8 (antibody, V domains shown)
VH: EVQLVESGGDLVKPGGSLKLSCAASGFTFSSGGMSWVRQTPDKRLEWVATISNGGGETYYEDSVKGRFTISRDNAKNTLYLQMNSLKSEDTAMYYCAREEYEGTWYEDVWGAGTTVTVSS
VL: DVLMTQTPLSLPVSLGDQASISCTSSQSGVHSNGNTELEWYLQKPGQSPKLLIYKVSNRTSGVPDRFSGSGSGTDFTLKISRVEAEDLGVYYCGQGSHVGRTFGGGTKLEIKR
As for B1, the kon in test [1] came to 28100 M⁻¹ s⁻¹; in test [2], 50600 M⁻¹ s⁻¹. In addition, the results for the Kd in test [2] and in test [3] were 4.55 nM and 8.78 nM, respectively. The off-rate constant (koff) in test [2] worked out at 0.00023 s⁻¹; in test [3], 0.000247 s⁻¹.

Usually kon stands for the rate constant with which the complex forms. As a reminder, the Kd is the concentration at which binding is half-saturated. Higher therefore signals a looser complex. By koff is commonly meant the rate constant with which the complex falls apart.
